Results published in PMC7863765.

Columns and labels:
[1] = molecular target: phosphorylated SARS-CoV-2 N construct pN.1-238 (SARS-CoV-2) (UniProt P0DTC9); test: SEC-MALS
[2] = molecular target: phosphorylated SARS-CoV-2 N construct pN.1-211 (SARS-CoV-2) (UniProt P0DTC9); test: SEC; observed qualitatively; Figure 6(C) and data not shown

**Q.** How did the stoichiometry N (14-3-3γ chains per pN.1-238 chain (2:1)) [1] turn out when “untagged full-length human 14-3-3γ (from UniProt P61981 1-247) (natural protein)” was run?
**A.** The stoichiometry N (14-3-3γ chains per pN.1-238 chain (2:1)) was 2.

**Q.** And the stoichiometry N (14-3-3γ chains per pN.1-211 chain (2:1)) [2]?
**A.** Its stoichiometry N (14-3-3γ chains per pN.1-211 chain (2:1)) is 2.
